Where no end group is shown, it is not given here. [ ]: non-standard residue; d: D form. The star is where a group is joined. FITC = O=C1OC2(c3ccc(O)cc3Oc3cc(O)ccc32)c2ccc(NC(=S)*)cc21; pT = C[C@@H](OP(=O)(O)O)[C@H](N)C(=O)O; pS = N[C@@H](COP(=O)(O)O)C(=O)O; Aβ = not defined here
Target: MpIBP_RIII1-4 (Marinomonas primoryensis ice-binding protein, Region III domains 1-4), truncated construct ending at N507 (Marinomonas primoryensis)
Test: ITC

Binder | Kd [nM] | stoichiometry N
AGAGD [AGAGD (unlabelled peptide)] | 1900 | 1
AGATD [AGATD (unlabelled peptide)] | 86 | 1
AGYTD [AGYTD (unlabelled peptide)] | 67 | 1
AGYTS [AGYTS (unlabelled peptide)] | 59 | 1

Target: MpIBP_RIII1-4 (Marinomonas primoryensis ice-binding protein, Region III domains 1-4), truncated construct ending at N507 (Marinomonas primoryensis)
Test: fluorescence polarisation

Binder | fold by which FITC-AβGPDSD binds stronger than FITC-AβGPDD [fold] | EC50 [nM] | affinity [µM]
{FITC-Aβ}-GPDD (reading uncertain; also: printed as FITC-AβGPDD) [FITC-AβGPDD] | 20 |  | 
{FITC-Aβ}-DSTPD (reading uncertain; also: printed as FITC-AβDSTPD) [FITC-AβDSTPD] |  | 27000 | 26
{FITC}-AGAGF [FITC-AGAGF] |  | 7200 | 
{FITC}-AGCTD [FITC-AGCTD] |  | 23 | 
{FITC-Aβ}-GPDSN (reading uncertain; also: printed as FITC-AβGPDSN) [FITC-AβGPDSN] |  | 270 | 
{FITC}-AGYTD [FITC-AGYTD] |  | 29 | 
{FITC}-AGWTD [FITC-AGWTD] |  | 23 | 
{FITC-Aβ}-DSTD (reading uncertain; also: printed as FITC-AβDSTD) [FITC-AβDSTD] |  | 110 | 
{FITC}-AGAGD [FITC-AGAGD] |  | 3200 | 
{FITC}-AGYTS [FITC-AGYTS] |  | 30 | 
{FITC}-AGATD [FITC-AGATD] |  | 72 | 
{FITC}-RHKKLMFK[pT]EGPDSD-OH [FITC-RHKKLMFK(pT)EGPDSD] |  | 690 | 
{FITC}-IKARAS[pS]SPVILVGTHLD-OH [FITC-IKARAS(pS)…] |  | 2700 | 
{FITC-Aβ}-GPDSD (reading uncertain; also: printed as FITC-AβGPDSD) [FITC-AβGPDSD] |  | 160 | 
{FITC}-AGAGI [FITC-AGAGI] |  | 4400 | 
{FITC}-AGAGY [FITC-AGAGY] |  | 4600 | 

Target: MpIBP_RIII1-4 (Marinomonas primoryensis ice-binding protein, Region III domains 1-4), truncated construct ending at N507 (Marinomonas primoryensis)
Test: fluorescence polarisation
Remark: another data set of the same source

Binder | EC50 [nM]
{FITC}-AGASD [FITC-AGASD] | 310
{FITC}-AGAYD [FITC-AGAYD] | 170
{FITC}-AGAGD [FITC-AGAGD] | 1500
{FITC}-AGATD [FITC-AGATD] | 89
{FITC}-AGAFD [FITC-AGAFD] | 180
{FITC}-AGAPD [FITC-AGAPD] | 4600

— doi:10.1101/2020.11.18.389114
